Results reported in PMC9963752 (Proceedings of the National Academy of Sciences of the …, 2023).
No end group written: not given here.

Tests used:
GRPR = conditions: relative to PD176252 (methoxy group replaced by hydrogen); cited from earlier work
[1] = biological target: GRPR with alanine mutation of Q120^3.30 (human, UniProt P30550 1-384, alanine mutation of Q120^3.30); experiment: cell-based or functional assay
[2] = biological target: GRPR with alanine mutation of C93^2.57 (human, UniProt P30550 1-384, alanine mutation of C93^2.57); experiment: cell-based or functional assay

C[C@@](Cc1c[nH]c2ccccc12)(NC(=O)Nc1ccc([N+](=O)[O-])cc1)C(=O)NCC1(c2ccccn2)CCCCC1 [PD168368]
reduction for GRPR binding (GRPR): 17 fold

VPLPAGGGTVLTKMYPRGNHWAVGHLM-NH2 [gastrin-releasing peptide]
GRP-induced calcium mobilization in transfected CHO cells: EC50 against WT-GRPR [1]: 25 fold
GRP-induced calcium mobilization in transfected CHO cells: EC50 against WT-GRPR [2]: 12 fold
